Laboratory results from article PMC4721528.
Substitutions are numbered along the chain they refer to. Names and notes keep the numbering of the source.

Substrate: CCCCC/C=C\C/C=C\C/C=C\C/C=C\CCCC(=O)O
Experiment: mass spectrometric product formation assay
Assay type: biochemical, Mus musculus
Details: 50 nM enzyme

B1: mCOX-2 (mouse COX-2) (Mus musculus; L489M) (protein)
chain: ANPCCSNPCQNRGECMSTGFDQYKCDCTRTGFYGENCTTPEFLTRIKLLLKPTPNTVHYILTHFKGVWNIVNNIPFLRSLIMKYVLTSRSYLIDSPPTYNVHYGYKSWEAFSNLSYYTRALPPVADDCPTPMGVKGNKELPDSKEVLEKVLLRREFIPDPQGSNMMFAFFAQHFTHQFFKTDHKRGPGFTRGLGHGVDLNHIYGETLDRQHKLRLFKDGKLKYQVIGGEVYPPTVKDTQVEMIYPPHIPENLQFAVGQEVFGLVPGLMMYATIWLREHNRVCDILKQEHPEWGDEQLFQTSRLILIGETIKIVIEDYVQHLSGYHFKLKFDPELLFNQQFQYQNRIASEFNTLYHWHPLLPDTFNIEDQEYSFKQFLYNNSILLEHGLTQFVESFTRQIAGRVAGGRNVPIAVQAVAKASIDQSREMKYQSLNEYRKRFSLKPYTSFEELTGEKEMAAELKALYSDIDVMEMYPALLVEKPRPDAIFGETMVELGAPFSLKGLMGNPICSPQYWKPSTFGGEVGFKIINTASIQSLICNNVKGCPFTSFNVQDPQPTKTATINASASHSRLDDINPTVLIKRRSTEL
  Km: 1.4 ± 0.3 µM
  kcat: 3.3 ± 0.1 s^–1

B2: mCOX-2 (mouse COX-2) (Mus musculus) (protein)
chain: B1 chain with M472L
  Km: 2.3 ± 0.3 µM
  kcat: 3.1 ± 0.1 s^–1
